Data from US20240067706A1 (CENTER FOR EXCELLENCE IN MOLECULAR CELL SCIENCE CHINESE …, published 2024).

Assays:
[1] = biological target: T1, SARS-CoV S protein expressed on the cell surface (SARS-CoV, UniProt P59594 14-1255); assay: flow cytometry on CHO cells transfected with S protein
T1 construct: whole, on cells

SARS-CoV-2 S1 protein = biological target: T2, SARS-CoV-2 S1 protein (SARS-CoV-2, UniProt P0DTC2 16-685); assay: ELISA, coated protein
T2 construct: domain: S1

B1: fully human monoclonal antibody 76E1 (antibody, V domains shown)
VH: EVQLVESGGGVVQPGGSLRLSCEASGFSFKDYGMHWIRQTPGKGLEWISRISGDTRGTSYVDSVKGRFIVSRDNSRNSLFLQMNSLRSEDTALYYCAALVIVAAGDDFDLWGQGTVVTVSS
VL: QSALTQPLSVSGSPGQSVTISCTGSSSDIGSYNFVSWYRQYPGKAPKVMIYEVNKRPSGVPVRFSGSKSGNTASLTVSGLQHEDEADYYCCSYGGRNNLIFGGGTKLTVL
notes: also called 76E1 antibody
[1]
  binding result: binds
SARS-CoV-2 S1 protein
  binding result: no binding (tested: 10 µg/ml initial test concentration)
